# Reference: patent publication US20110027321
# B1: recombinant 6 histidine tagged C. trachomatis HtrA polypeptide (serovar L2), purified from E. coli BL21 (DE3) (pET28-CtHtrA/L2) (protein)
# chain: SPMLGYSASKKDSKADICLAVSSGDQEVSQEDLLKEVSRGFSRVAAKATPGVVYIENFPKTGNQAIASPGNKRGFQENPFDYFNDEFFNRFFGLPSHREQQRPQQRDAVRGTGFIVSEDGYVVTNHHVVEDAGKIHVTLHDGQKYTAKIVGLDPKTDLAVIKIQAEKLPFLTFGNSDQLQIGDWAIAIGNPFGLQATVTVGVVSAKGRNQLHIVDFEDFIQTDAAINPGNSGGPLLNINGQVIGVNTAIVSGSGGYIGIGFAIPSLMAKRVIDQLISDGQVTRGFLGVTLQPIDSELATCYKLEKVYGALVTDVVKGSPAEKAGLRQEDVIVAYNGKEVESLSALRNAISLMMPGTRVILKIVREGKTIEIPVTVTQIPTEDGVSALQKMGVRVQNITPEICKKLGLAADTRGILVVAVEAGSPAASAGVAPGQLILAVNRQRVASVEELNQVLKNSKGENVLLMVSQGDVVRFIVLKSDHHHHHHE
# Molecular target: blue casein substrate (4-16% BlueCasein zymogram gel, Novex)
protein,measurement,value
B1,protease activity in zymogram gel (zone of clearing),Recombinant C. trachomatis HtrA degradation (i.e. proteolysis) of the blue casein substrate is visualized as a zone of clearing at ˜49 kDa
